Assay results taken from publication PMC2675908, “Direct Observation of ATP-Induced Conformational Changes in Single P2X4 Receptors” (PLOS Biology, 2009).

Target: the molecule itself
Assay: native gel or EMSA; native PAGE, 4%-13% acrylamide gradient gel, sample buffer with 1% deoxycholate, silver staining; purified P2X4R

B1: rat P2X4 receptor (receptor, UniProt P51577 1-388, looked up)
chain: MAGCCSVLGSFLFEYDTPRIVLIRSRKVGLMNRAVQLLILAYVIGWVFVWEKGYQETDSVVSSVTTKAKGVAVTNTSQLGFRIWDVADYVIPAQEENSLFIMTNMIVTVNQTQSTCPEIPDKTSICNSDADCTPGSVDTHSSGVATGRCVPFNESVKTCEVAAWCPVENDVGVPTPAFLKAAENFTLLVKNNIWYPKFNFSKRNILPNITTSYLKSCIYNAQTDPFCPIFRLGTIVEDAGHSFQEMAVEGGIMGIQIKWDCNLDRAASLCLPRYSFRRLDTRDLEHNVSPGYNFRFAKYYRDLAGKEQRTLTKAYGIRFDIIVFGKAGKFDIIPTMINVGSGLALLGVATVLCDVIVLYCMKKKYYYRDKKYKYVEDYEQGLSGEMNQ
notes: P2X4 receptor (P2X purinoceptor 4), rat; cDNA encoding rat P2X4R subcloned into pcDNA3.1; Homotrimer by native PAGE (about 150 kDa; monomer about 50 kDa in SDS-PAGE) and by AFM; No tag is mentioned; 1321N1 cells are said not to express P2XRs of their own; also called P2X4Rs; source: human 1321N1 astrocytoma cells, stably transfected (pcDNA3.1)
  stoichiometry N: 3
